One molecule from PMC3365711 (The Journal of Biological Chemistry, 2012) can be followed below.

This assay has as its target human HP1 CSDα (109–185) (human, UniProt P45973 109-185). The assay is described as follows: other fluorescence titration.

human HP1 CSDα (109–185), sequence (P45973 109-185): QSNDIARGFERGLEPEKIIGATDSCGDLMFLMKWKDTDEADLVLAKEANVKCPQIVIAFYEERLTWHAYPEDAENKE

B1: CAF1 p150(210–238) (peptide, UniProt Q9QWF0 210-238, looked up)
chain: SKAGDLLFIEKVPVVVLEDILATKPSIAS
As to B1, the affinity, expressed as Kd, was 430 ± 100 nM.

One may read the Kd as the constant that tells how readily two partners part at equilibrium. Higher therefore signals lower affinity.
